Source: patent US20120058906A1 (published 2012)
One block for each binder: values may come before it.

Columns and labels:
[1] = target: T1, rHuman IGF-1 sR (insulin-like growth factor-1 soluble receptor), CF (R&D Systems Cat#391-GR) (human, UniProt P08069 31-932); assay: MSD ECL titration, Fab 2.3 nM, blank 234
T1 construct: Bought soluble receptor; also called IGF-R1

[2] = target: T2, rHuman P-Cadherin/Fc Chimera, CF (R&D Systems Cat#861-PC) (human, UniProt P22223 108-654); assay: MSD ECL titration, Fab 2.3 nM, blank 234
T2 construct: Bought Fc chimera; Fc part of the bought chimera not given

[3] = target: T3, rHuman HGF R/c-MET/Fc Chimera, CF (R&D Systems Cat#358-MT/CF) (human, UniProt P08581 25-932); assay: MSD ECL titration, Fab 2.3 nM, blank 234
T3 construct: Bought Fc chimera; also called HGF R/Fc; Fc part of the bought chimera not given

[4] = target: T4, rHuman Erythropoietin R/Fc Chimera, CF (R&D Systems Cat#963-ER) (human, UniProt P19235 25-250); assay: MSD ECL titration, Fab 2.3 nM, blank 234
T4 construct: Bought Fc chimera; also called EPO R/Fc; EPOR; Fc part of the bought chimera not given
T4 sequence: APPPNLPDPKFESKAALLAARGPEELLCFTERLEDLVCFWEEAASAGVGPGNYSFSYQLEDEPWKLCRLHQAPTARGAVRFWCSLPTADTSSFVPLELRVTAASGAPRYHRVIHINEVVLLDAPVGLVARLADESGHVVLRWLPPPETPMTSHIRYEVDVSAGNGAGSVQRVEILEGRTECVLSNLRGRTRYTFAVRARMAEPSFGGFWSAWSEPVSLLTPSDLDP

[5] = target: T5, rHuman Notch-1/Fc Chimera, CF (R&D Systems Cat#3647-TK) (human, UniProt P46531 19-526); assay: MSD ECL titration, Fab 2.3 nM, blank 234
T5 construct: Bought Fc chimera; Fc part of the bought chimera not given

[6] = target: T6, rHuman CD44/Fc Chimera, CF (R&D Systems Cat#3660-CD) (human, UniProt P16070 21-220); assay: MSD ECL titration, Fab 2.3 nM, blank 234
T6 construct: Bought Fc chimera; Fc part of the bought chimera not given

[7] = target: T7, rHuman ErbB2/Fc Chimera, CF (R&D Systems Cat#1129-ER) (human, UniProt P04626 23-652); assay: MSD ECL titration, Fab 2.3 nM, blank 234
T7 construct: Bought Fc chimera; also called HER2/neu; Fc part of the bought chimera not given

[8] = target: T8, rHuman EGF R/Fc Chimera, CF (R&D Systems Cat#344-ER) (human, UniProt P00533 25-645); assay: MSD ECL titration, Fab 2.3 nM, blank 234
T8 construct: Bought Fc chimera; Fc part of the bought chimera not given

[9] = target: T9, Recombinant Human DLL4 (R&D Systems Cat#1506-D4/CF) (human, UniProt Q9NR61 27-524); assay: MSD ECL titration, Fab 2.3 nM, blank 234
T9 construct: Bought recombinant protein; also called rHuman DLL4; delta-like protein 4

[10] = target: T10, rHuman IGF-1 sR, (IGF-1 sR), CF (R&D Systems Cat#391-GR) (human, UniProt P08069 31-932); assay: MSD ECL multi-spot plate; Fab 2.0 nM; blank spot 316
T10 construct: also called insulin-like growth factor-1 soluble receptor; IGF-R1

[11] = target: T11, rHuman EGF R/Fc Chimera, CF (R&D Systems Cat#344-ER) (human, UniProt P00533 25-645); assay: as above
T11 construct: also called epidermal growth factor receptor; Fc part of the bought chimera not given

[12] = target: T12, rHuman Notch-1/Fc Chimera, CF (R&D Systems Cat#3647-TK) (human, UniProt P46531 19-526); assay: as above
T12 construct: Fc part of the bought chimera not given

[13] = target: T13, rHuman Erythropoietin R/Fc Chimera, CF (R&D Systems Cat#963-ER) (human, UniProt P19235 25-250); assay: as above
T13 construct: also called EPO R/Fc; Epo R; Fc part of the bought chimera not given
T13 sequence: T4 sequence

[14] = target: T14, rHuman ErbB2/Fc Chimera, CF (R&D Systems Cat#1129-ER) (human, UniProt P04626 23-652); assay: as above
T14 construct: also called HER2/neu; human epidermal growth factor 2 receptor; Fc part of the bought chimera not given

[15] = target: T15, rHuman CD44/Fc Chimera, CF (R&D Systems Cat#3660-CD) (human, UniProt P16070 21-220); assay: as above
T15 construct: Fc part of the bought chimera not given

[16] = target: T16, rHuman CD44/Fc Chimera, CF (R&D Systems Cat#3660-CD) (human, UniProt P16070 21-220); assay: MSD ECL multi-spot plate, antigen immobilized; Fab 1000 nM; blank spot 630
T16 construct: Purchased Fc chimera; not shown: Fc portion of the purchased chimera

[17] = target: T17, rHuman EGF R/Fc Chimera, CF (R&D Systems Cat#344-ER) (human, UniProt P00533 25-645); assay: as above
T17 construct: Purchased Fc chimera; not shown: Fc portion of the purchased chimera

[18] = target: T18, rHuman IGF-1 sR (IGF-1 sR), CF (R&D Systems Cat#391-GR) (human, UniProt P08069 31-932); assay: as above
T18 construct: Purchased soluble receptor; also called insulin-like growth factor-1 soluble receptor; IGF-R1

[19] = target: T19, rHuman Erythropoietin R/Fc Chimera, CF (R&D Systems Cat#963-ER) (human, UniProt P19235 25-250); assay: as above
T19 construct: Purchased Fc chimera; also called EPO R/Fc; Epo R; not shown: Fc portion of the purchased chimera
T19 sequence: T4 sequence

[20] = target: T20, rHuman P-Cadherin/Fc Chimera, CF (R&D Systems Cat#861-PC) (human, UniProt P22223 108-654); assay: as above
T20 construct: Purchased Fc chimera; not shown: Fc portion of the purchased chimera
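Further: blank spot per well as comparator with Hit at signal to blank ratio of 4 or more.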

ECL signal [1]: 231
ECL signal [2]: 401
ECL signal [3]: 253
ECL signal [4]: 429
ECL signal [5]: 333
ECL signal [6]: 317
ECL signal [7]: 291
ECL signal [8]: 289
ECL signal [9]: 3060
B1: Fab VH1-46_IGHD6-6*01_IGHJ1*01 & L6_IGKJ1*01 (Fab, V domains shown)
VH: QVQLVQSGAEVKKPGASVKVSCKASGYTFTSYYMHWVRQAPGQGLEWMGIINPSGGSTSYAQKFQGRVTMTRDTSTSTVYMELSSLRSEDTAVYYCAREEYSSSSAEYFQHWGQGTLVTVSS
VL: not shown
notes: Expressed in E. coli as Fab: heavy chain with CH1 plus Flag and His tags from Plasmid A, kappa light chain constant region from Plasmid C; also called Fab No. 1

ECL signal [10]: 367 ECL signal
ECL signal [11]: 424 ECL signal
ECL signal [12]: 539 ECL signal
ECL signal [13]: 433 ECL signal
ECL signal [14]: 382 ECL signal
ECL signal [15]: 447 ECL signal
B2: Fab VH1-8_IGHD2-2*01_IGHJ6*01 & L12_IGKJ1*01 (Fab, V domains shown)
VH: QVQLVQSGAEVKKPGASVKVSCKASGYTFTSYDINWVRQATGQGLEWMGWMNPNSGNTGYAQKFQGRVTMTRNTSISTAYMELSSLRSEDTAVYYCARGGYCSSTSCYADYYYYYGMDVWGQGTTVTVSS
VL: not shown

ECL signal [16]: 1020 ECL signal
ECL signal [17]: 1030 ECL signal
ECL signal [18]: 1130 ECL signal
ECL signal [19]: 1120 ECL signal
ECL signal [20]: 1040 ECL signal
B3: Fab VH5-51_IGHD5-18*01>3_IGHJ4*01_G100K & V3-4_IGLJ1*01 (Fab, V domains shown)
VH: EVQLVQSGAEVKKPGESLKISCKGSGYSFTSYWIGWVRQMPGKGLEWMGIIYPGDSDTRYSPSFQGQVTISADKSISTAYLQWSSLKASDTAMYYCARRKYSYGYDYFDYWGQGTLVTVSS
VL: QTVVTQEPSFSVSPGGTVTLTCGLSSGSVSTSYYPSWYQQTPGQAPRTLIYSTNTRSSGVPDRFSGSILGNKAALTITGAQADDESDYYCVLYMGSGISYVFGTGTKVTVL
notes: It was expressed as a Fab: CH1 with tags from Plasmid A and lambda CL from Plasmid E; also called Fab No. 22
